Results on 6 molecules are retold here after PMC3605791 (Nature structural & molecular biology, 2012).

Test [1] addresses VAMP7 longin domain (Mus musculus) (UniProt P70280). Particulars: cited from earlier work.
The target in test [2] is Rab38:GTP or Rab32:GTP.
For test [3], the target named is T1, Varp(658–921)His6 (human, UniProt Q96NW4 658-921). In words: pull-down.
In test [4] the target is T1, Varp(658–921)His6. In words: ITC.

T1 sequence (Q96NW4 658-921): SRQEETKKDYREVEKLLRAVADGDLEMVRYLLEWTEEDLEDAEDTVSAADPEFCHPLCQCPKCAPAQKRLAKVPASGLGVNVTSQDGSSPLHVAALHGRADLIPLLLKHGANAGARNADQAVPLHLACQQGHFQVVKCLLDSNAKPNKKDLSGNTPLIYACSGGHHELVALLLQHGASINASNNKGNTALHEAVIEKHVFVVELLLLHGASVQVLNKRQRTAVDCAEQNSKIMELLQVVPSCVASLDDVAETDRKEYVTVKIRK

Regarding Hrb (from UniProt P52594), in test [1], the Kd is 10 µM.
In test [2], “Varp (construct not stated, KD with Rab38:GTP or Rab32:GTP) (from UniProt Q96NW4 1-1050) (natural protein)” displayed a dissociation constant (Kd) of 2 to 5 µM.

B1: GSTVAMP7 residues 1–160 (domain or fragment)
chain: MAILFAVVARGTTILAKHAWCGGNFLEVTEQILAKIPSENNKLTYSHGNYLFHYICQDRIVYLCITDDDFERSRAFSFLNEVKKRFQTTYGSRAQTALPYAMNSEFSSVLAAQLKHHSENKSLDKVMETQAQVDELKGIMVRNIDLVAQRGERLELLIDK
As for B1, the binding result in test [3] is recorded as “binds”.

B2: VAMP7 R72A (domain or fragment)
chain: MAILFAVVARGTTILAKHAWCGGNFLEVTEQILAKIPSENNKLTYSHGNYLFHYICQDRIVYLCITDDDFEASRAFSFLNEVKKRFQTTYGSRAQTALPYAMNSEFSSVLAAQLKHHSENKSLDKVMETQAQVDELKGIMVRNIDLVAQRGERLELLIDKTENLVDSSVTFKTTSRNLARAMCMKNIK
For the molecule B2, the Kd in test [4] is over 300 µM.

B3: VAMP7 CD (1–188) (domain or fragment)
chain: MAILFAVVARGTTILAKHAWCGGNFLEVTEQILAKIPSENNKLTYSHGNYLFHYICQDRIVYLCITDDDFERSRAFSFLNEVKKRFQTTYGSRAQTALPYAMNSEFSSVLAAQLKHHSENKSLDKVMETQAQVDELKGIMVRNIDLVAQRGERLELLIDKTENLVDSSVTFKTTSRNLARAMCMKNIK
In test [4], B3 had a Kd of 2.3 µM.

B4: VAMP7 D69A E71F S73D (domain or fragment)
chain: MAILFAVVARGTTILAKHAWCGGNFLEVTEQILAKIPSENNKLTYSHGNYLFHYICQDRIVYLCITDDAFFRDRAFSFLNEVKKRFQTTYGSRAQTALPYAMNSEFSSVLAAQLKHHSENKSLDKVMETQAQVDELKGIMVRNIDLVAQRGERLELLIDKTENLVDSSVTFKTTSRNLARAMCMKNIK
Turning to B4, the Kd in test [4] is over 300 µM.
